In article PMC6281755 (Diabetes, obesity & metabolism, 2018):
Like-named read-outs stand apart in the source and are kept apart here.

Experiments:
[1] = dog, in vivo, po
[2] = in vivo; cited from earlier work
glucose metabolism = type: in vivo, dog; details: dogs, estimate (90% CI)
[3] = dog, in vivo
[4] = dog, in vivo; remark: listed apart in the source

In the case of insulin tregopil, the Off-times (dog, in vivo) is reported as ≤ 120 min, the tmax (dog, in vivo) is reported as ≤ 20 min and the “Duration of PD effect after a dose” value (dogs, oral dose, statement in discussion) is reported as 90 min. The “Cmax of first dose compared with second dose” value [1] was 117%, the “Insulin AUC0–120 of first dose compared with second dose” value [1] was 118% and the “Mean Cmax of first dose compared with second dose” value [1] was 88%. The tmax [1] was 20 min, the “Time to peak concentration (tmax)” value [2] was 30 min and the “Mean difference (human insulin-tregopil): GIR AUC0-120 min” value (glucose metabolism; intraportal 3.6 pmol/kg/min) was -24.1 mg/kg. For the same substance, the “Mean difference (human insulin-tregopil): NHGB, last 30 min period 1” value (glucose metabolism; intraportal 3.6 pmol/kg/min) was 0.53 mg/kg/min, the “Mean difference (human insulin-tregopil): GIR AUC120-240 min” value (glucose metabolism; intraportal 12.0 pmol/kg/min) was -74 mg/kg and the “Mean difference (human insulin-tregopil): NHGB, last 30 min period 2” value (glucose metabolism; intraportal 12.0 pmol/kg/min) was 0.30 mg/kg/min. For the same substance, the “Mean difference (human insulin-tregopil): non-hepatic glucose uptake, last 30 min period 2” value (glucose metabolism; intraportal 12.0 pmol/kg/min) was -1.6 mg/kg/min, the “Mean difference (human insulin-tregopil): ΔNHGB, period 1 to period 2” value (glucose metabolism; intraportal 3.6 then 12.0 pmol/kg/min) was 0.2 mg/kg/min and the Median tmax [3] was 20 min. For the same substance, the “Fraction extracted on first-pass by the liver” value [4] was “one-third”.
